Experimental data as given in IntAct's records for PubMed 21252943.

B1: E3 ubiquitin-protein ligase RNF4 (Rattus norvegicus (Rat)), O88846 (parent)
chain: MSTRNPQRKRRGGAVNSRQTQKRTRETTSTPEISLEAEPIELVETVGDEIVDLTCESLEPVVVDLTHNDSVVIVEERRRPRRNGRRLRQDHADSCVVSSDDEELSKDKDVYVTTHTPRSTKDEGTTGLRPSGTVSCPICMDGYSEIVQNGRLIVSTECGHVFCSQCLRDSLKNANTCPTCRKKINHKRYHPIYI

Variants of: B1
Details: with sumo2_human SUMO2, P61956
sumo2_human SUMO2, P61956, sequence (P61956 whole entry): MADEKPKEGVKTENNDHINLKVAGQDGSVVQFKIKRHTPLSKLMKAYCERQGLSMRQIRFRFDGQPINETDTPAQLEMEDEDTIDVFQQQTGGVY

Variant	effect of a mutation on the interaction
MSTRNPQRKRRGGAVNSRQTQKRTRETTSTPEISLEAEPIELVETVGDEIVDLTCESLEPVVVDLTHNDSVVIAEERRRPRRNGRRLRQDHADSCVVSSDDEELSKDKDVYVTTHTPRSTKDEGTTGLRPSGTVSCPICMDGYSEIVQNGRLIVSTECGHVFCSQCLRDSLKNANTCPTCRKKINHKRYHPIYI [V74A]	disrupting interaction
MSTRNPQRKRRGGAVNSRQTQKRTRETTSTPEISLEAEPIELVETVGDEIADLTCESLEPVVVDLTHNDSVVIVEERRRPRRNGRRLRQDHADSCVVSSDDEELSKDKDVYVTTHTPRSTKDEGTTGLRPSGTVSCPICMDGYSEIVQNGRLIVSTECGHVFCSQCLRDSLKNANTCPTCRKKINHKRYHPIYI [V51A]	disrupting interaction
MSTRNPQRKRRGGAVNSRQTQKRTRETTSTPEISLEAEPIELVETVGDEIVDLTCESLEPAVVDLTHNDSVVIVEERRRPRRNGRRLRQDHADSCVVSSDDEELSKDKDVYVTTHTPRSTKDEGTTGLRPSGTVSCPICMDGYSEIVQNGRLIVSTECGHVFCSQCLRDSLKNANTCPTCRKKINHKRYHPIYI [V61A]	disrupting interaction
MSTRNPQRKRRGGAVNSRQTQKRTRETTSTPEISLEAEPAELVETVGDEIVDLTCESLEPVVVDLTHNDSVVIVEERRRPRRNGRRLRQDHADSCVVSSDDEELSKDKDVYVTTHTPRSTKDEGTTGLRPSGTVSCPICMDGYSEIVQNGRLIVSTECGHVFCSQCLRDSLKNANTCPTCRKKINHKRYHPIYI [I40A]	disrupting interaction
MSTRNPQRKRRGGAVNSRQTQKRTRETTSTPEISLEAEPIELVETVGDEIVDATCESLEPVVVDLTHNDSVVIVEERRRPRRNGRRLRQDHADSCVVSSDDEELSKDKDVYVTTHTPRSTKDEGTTGLRPSGTVSCPICMDGYSEIVQNGRLIVSTECGHVFCSQCLRDSLKNANTCPTCRKKINHKRYHPIYI [L53A]	disrupting interaction
MSTRNPQRKRRGGAVNSRQTQKRTRETTSTPEISLEAEPIELVETVGDEIVDLTCESLEPVAVDLTHNDSVVIVEERRRPRRNGRRLRQDHADSCVVSSDDEELSKDKDVYVTTHTPRSTKDEGTTGLRPSGTVSCPICMDGYSEIVQNGRLIVSTECGHVFCSQCLRDSLKNANTCPTCRKKINHKRYHPIYI [V62A]	disrupting interaction
MSTRNPQRKRRGGAVNSRQTQKRTRETTSTPEISLEAEPIEAVETVGDEIVDLTCESLEPVVVDLTHNDSVVIVEERRRPRRNGRRLRQDHADSCVVSSDDEELSKDKDVYVTTHTPRSTKDEGTTGLRPSGTVSCPICMDGYSEIVQNGRLIVSTECGHVFCSQCLRDSLKNANTCPTCRKKINHKRYHPIYI [L42A]	disrupting interaction
MSTRNPQRKRRGGAVNSRQTQKRTRETTSTPEISLEAEPIELAETVGDEIVDLTCESLEPVVVDLTHNDSVVIVEERRRPRRNGRRLRQDHADSCVVSSDDEELSKDKDVYVTTHTPRSTKDEGTTGLRPSGTVSCPICMDGYSEIVQNGRLIVSTECGHVFCSQCLRDSLKNANTCPTCRKKINHKRYHPIYI [V43A]	disrupting interaction
MSTRNPQRKRRGGAVNSRQTQKRTRETTSTPEISLEAEPIELVETVGDEAVDLTCESLEPVVVDLTHNDSVVIVEERRRPRRNGRRLRQDHADSCVVSSDDEELSKDKDVYVTTHTPRSTKDEGTTGLRPSGTVSCPICMDGYSEIVQNGRLIVSTECGHVFCSQCLRDSLKNANTCPTCRKKINHKRYHPIYI [I50A]	disrupting interaction
MSTRNPQRKRRGGAVNSRQTQKRTRETTSTPEISLEAEPIELVETVGDEIVDLTCESLEPVVVDLTHNDSVAIVEERRRPRRNGRRLRQDHADSCVVSSDDEELSKDKDVYVTTHTPRSTKDEGTTGLRPSGTVSCPICMDGYSEIVQNGRLIVSTECGHVFCSQCLRDSLKNANTCPTCRKKINHKRYHPIYI [V72A]	disrupting interaction
MSTRNPQRKRRGGAVNSRQTQKRTRETTSTPEISLEAEPIELVETVGDEIVDLTCESLEPVVADLTHNDSVVIVEERRRPRRNGRRLRQDHADSCVVSSDDEELSKDKDVYVTTHTPRSTKDEGTTGLRPSGTVSCPICMDGYSEIVQNGRLIVSTECGHVFCSQCLRDSLKNANTCPTCRKKINHKRYHPIYI [V63A]	disrupting interaction
MSTRNPQRKRRGGAVNSRQTQKRTRETTSTPEISLEAEPIELVETVGDEIVDLTCESLEPVVVDLTHNDSVVAVEERRRPRRNGRRLRQDHADSCVVSSDDEELSKDKDVYVTTHTPRSTKDEGTTGLRPSGTVSCPICMDGYSEIVQNGRLIVSTECGHVFCSQCLRDSLKNANTCPTCRKKINHKRYHPIYI [I73A]	disrupting interaction
MSTRNPQRKRRGGAVNSRQTQKRTRETTSTPEISLEAEPIELVETVGDEIVDLTCESLEPVVVDLTHNDSAVIVEERRRPRRNGRRLRQDHADSCVVSSDDEELSKDKDVYVTTHTPRSTKDEGTTGLRPSGTVSCPICMDGYSEIVQNGRLIVSTECGHVFCSQCLRDSLKNANTCPTCRKKINHKRYHPIYI [V71A]	disrupting interaction
